Laboratory results as given in publication PMC2614558.

What was measured:
[1] = target: cytoplasmic (C-terminal, soluble) domain of the putative zinc transporter CzrB from Thermus thermophilus, His-tag-free (Thermus thermophilus); assay: small-angle X-ray scattering
[2] = target: cytoplasmic (C-terminal, soluble) domain of the putative zinc transporter CzrB from Thermus thermophilus, His-tag-free (Thermus thermophilus); assay: small-angle X-ray scattering; remark: listed apart in the source
[3] = target: cytoplasmic (C-terminal, soluble) domain of the putative zinc transporter CzrB from Thermus thermophilus, His-tag-free (Thermus thermophilus); assay: SEC

Measured: stoichiometry N

cytoplasmic (C-terminal, soluble) domain of the putative zinc transporter CzrB from Thermus thermophilus, His-tag-free (domain or fragment)
2: all assays above
